According to publication PMC9807911, “RH5.1-CyRPA-Ripr antigen combination vaccine shows little improvement over RH5.1 in a preclinical setting” (Frontiers in Cellular and Infection Microbiology, 2022):

Molecular target: CyRPA (D29-E362; S147A, T324A, T340A) (Plasmodium falciparum 3D7, UniProt Q8IFM8 29-362, S147A | T324A | T340A)
Test: gel electrophoresis
Conditions: both partners purified

B1: RH5.1 (E26-Q526; T40A, T216A, T286A, T299A) (natural protein)
chain: ENAIKKTKNQENNLALLPIKSTEEEKDDIKNGKDIKKEIDNDKENIKTNNAKDHSTYIKSYLNTNVNDGLKYLFIPSHNSFIKKYSVFNQINDGMLLNEKNDVKNNEDYKNVDYKNVNFLQYHFKELSNYNIANSIDILQEKEGHLDFVIIPHYTFLDYYKHLSYNSIYHKSSTYGKCIAVDAFIKKINEAYDKVKSKCNDIKNDLIATIKKLEHPYDINNKNDDSYRYDISEEIDDKSEETDDETEEVEDSIQDTDSNHAPSNKKKNDLMNRAFKKMMDEYNTKKKKLIKCIKNHENDFNKICMDMKNYGTNLFEQLSCYNNNFCNTNGIRYHYDEYIHKLILSVKSKNLNKDLSDMTNILQQSELLLTNLNKKMGSYIYIDTIKFIHKEMKHIFNRIEYHTKIINDKTKIIQDKIKLNIWRTFQKDELLKRILDMSNEYSLFITSDHLRQMLYNTFYSKEKHLNNIFHHLIYVLQMKFNDVPIKMEYFQTYKKNKPLTQ
B1: binds.
